In article PMC5839991 (Nature structural & molecular biology, 2018):

Columns and labels:
[1] = target: recombinant human serum albumin from S. cerevisiae, biotin labeled (Homo sapiens, UniProt P02768, biotin (EZ-Link NHS-PEG4-Biotin)); assay: SPR
[2] = target: mouse serum albumin, biotin labeled (Mus musculus, UniProt P07724, biotin (EZ-Link NHS-PEG4-Biotin)); assay: SPR
Sequence of mouse serum albumin, biotin labeled (P07724 25-608): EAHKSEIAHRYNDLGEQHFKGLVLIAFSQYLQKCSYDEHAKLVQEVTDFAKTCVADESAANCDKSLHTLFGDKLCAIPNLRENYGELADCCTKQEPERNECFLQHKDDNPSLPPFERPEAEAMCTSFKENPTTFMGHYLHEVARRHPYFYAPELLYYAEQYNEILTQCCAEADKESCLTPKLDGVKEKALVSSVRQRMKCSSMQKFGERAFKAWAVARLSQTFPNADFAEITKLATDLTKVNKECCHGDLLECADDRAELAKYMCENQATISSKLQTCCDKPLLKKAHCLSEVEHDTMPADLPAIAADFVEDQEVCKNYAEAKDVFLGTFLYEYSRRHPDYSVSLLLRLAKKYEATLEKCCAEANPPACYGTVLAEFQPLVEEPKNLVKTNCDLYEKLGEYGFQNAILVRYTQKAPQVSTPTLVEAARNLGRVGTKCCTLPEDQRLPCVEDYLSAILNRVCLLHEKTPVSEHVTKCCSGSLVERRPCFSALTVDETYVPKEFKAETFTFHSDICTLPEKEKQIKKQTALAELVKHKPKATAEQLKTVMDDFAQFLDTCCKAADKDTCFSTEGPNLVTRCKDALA

B1: Nb.b201 (VHH)
VHH: QVQLQESGGGLVQAGGSLRLSCAASGYISDAYYMGWYRQAPGKEREFVATITHGTNTYYADSVKGRFTISRDNAKNTVYLQMNSLKPEDTAVYYCAVLETRSYSFRYWGQGTQVTVSS
Kd [1]: 0.43 µM | binding result [2]: no binding
